Experimental data as given in patent publication US20220409663A1.

Biological target: transforming growth factor-beta receptor 2 (TGFBR2) (human) (UniProt P37173)
Experiment: cell-based or functional assay

UniProt P37173, sequence (P37173 23-567): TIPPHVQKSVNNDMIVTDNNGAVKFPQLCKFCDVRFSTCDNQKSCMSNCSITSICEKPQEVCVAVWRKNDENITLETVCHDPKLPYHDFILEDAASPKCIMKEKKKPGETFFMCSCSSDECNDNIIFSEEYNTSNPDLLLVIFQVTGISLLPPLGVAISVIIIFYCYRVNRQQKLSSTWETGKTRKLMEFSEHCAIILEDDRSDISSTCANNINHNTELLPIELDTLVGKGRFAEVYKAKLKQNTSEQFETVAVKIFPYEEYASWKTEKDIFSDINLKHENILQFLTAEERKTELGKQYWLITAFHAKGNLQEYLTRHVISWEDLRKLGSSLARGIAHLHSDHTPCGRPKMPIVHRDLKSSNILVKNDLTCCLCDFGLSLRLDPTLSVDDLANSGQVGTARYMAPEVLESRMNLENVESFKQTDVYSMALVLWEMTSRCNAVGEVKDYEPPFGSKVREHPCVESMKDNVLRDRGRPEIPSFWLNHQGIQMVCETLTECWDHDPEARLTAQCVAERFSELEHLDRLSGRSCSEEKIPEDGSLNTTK

fold change in cytokine concentration from TGF-β:vehicle treated cells (pro-inflammatory cytokine secretion, 3 days, TGF-β 10 ng/ml) (fold change (ratio)): < 1
Substance: transforming growth factor-β (TGFβ) (ligand)
